Here are results for one molecule from publication PMC12322997, “Asxl1 regulates optic cup development through interaction with Lhx2 and epigenetic modulation of Wnt signaling” (Animal Cells and Systems, 2025).

In the test the target is T1, GST-mAsxl1 (aa 1193-1514) (mouse, UniProt P59598 1193-1514).
T1 construct: also called GST-fused Asxl1 protein; source: E. coli, purified (glutathione-Sepharose beads)
T1 sequence (looked up): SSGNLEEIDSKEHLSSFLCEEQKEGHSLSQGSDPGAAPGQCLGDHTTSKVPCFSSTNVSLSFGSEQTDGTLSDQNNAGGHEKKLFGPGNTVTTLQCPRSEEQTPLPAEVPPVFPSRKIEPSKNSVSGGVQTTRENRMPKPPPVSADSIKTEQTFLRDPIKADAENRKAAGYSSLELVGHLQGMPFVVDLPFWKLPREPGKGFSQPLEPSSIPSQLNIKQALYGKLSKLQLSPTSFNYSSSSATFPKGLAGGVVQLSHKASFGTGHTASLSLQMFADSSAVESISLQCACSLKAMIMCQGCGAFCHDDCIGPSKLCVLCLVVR
The experiment in a line: pull-down; GST pull-down; GST-mAsxl1 on glutathione-Sepharose, His-hLHX2 purified on Ni-NTA; bound protein detected by anti-His Western blot. Particulars: both partners purified. (In general: A western blot detects proteins with antibodies after separation by electrophoresis.)

B1: His-hLhx2 (aa 42-221) (domain or fragment, human, UniProt P50458 42-221, looked up)
chain: MPSISSDRAALCAGCGGKISDRYYLLAVDKQWHMRCLKCCECKLNLESELTCFSKDGSIYCKEDYYRRFSVQRCARCHLGISASEMVMRARDLVYHLNCFTCTTCNKMLTTGDHFGMKDSLVYCRLHFEALLQGEYPAHFNHADVAAAAAAAAAAKSAGLGAAGANPLGLPYYNGVGTVQ
notes: LHX2, human (hLHX2), residues 42-221; also called His-tagged Lhx2 protein; source: E. coli, purified (Ni-NTA agarose beads)
In the case of B1, the binding result is “binds”.
